{"source": "patent US9249224B2", "about": "(RINAT NEUROSCIENCE CORP., priority 2011, dated 2016)", "tested_on": "IGF-1", "experiment": "Serum IGF-1 levels in cynomolgus monkeys after a single antibody dose", "format": "in vivo, cynomolgus monkey", "conditions": "Table 10, cynomolgus monkeys", "experimental": "Serum samples were analyzed for changes in IGF-1 levels compared to baseline using an R&D Systems™ Quantikine™ human IGF-1 immunoassay kit (cat. #DG100).\nTo determine if GHR antagonist monoclonal antibodies can affect IGF-1, IGFBP-3, and ALS levels in vivo by inhibiting the function of GHR, the effect of humanized anti-human GHR antibody SS1 was tested in cynomolgus monkeys. A dose-response study was conducted to test for changes in IGF-1, IGFBP-3, and ALS levels following a single dose of SS1. Eight naïve female cynomolgus monkeys were injected intravenously with a single dose of SS1 or negative control human IgG2, in 1×PBS 0.01% Tween™ 20. Two monkeys were dosed with 30 mg/kg SS1, two were dosed with 10 mg/kg SS1, two were dosed with 3 mg/kg SS1, and two were dosed with 30 mg/kg negative control human IgG2Δa on Day 1. Serum samples were taken from all animals at the following timepoints: pre-dose, 24 h, 48 h, 72 h, 120 h, 144 h, 192 h, 240 h, 336 h, 528 h, 696 h. Serum was also taken from the 30 mg/kg SS1 and negative control treated animals at 864 h post-dose.\nSix naïve female cynomolgus monkeys were injected either intravenously or subcutaneously with a single dose of […] or negative control human IgG2Δa in 1×PBS 0.01% Tween™ 20. Two monkeys were dosed with 3 mg/kg SS1 intravenously, two were dosed with 3 mg/kg SS1 subcutaneously, and two were dosed with 3 mg/kg negative control human IgG2Δa subcutaneously on Day 1. Serum samples were taken from all animals at the following timepoints: pre-dose, 24 h, 72 h, 120 h, 168 h, 216 h, 264 h, 312 h, 360 h, 408 h, 456 h and 504 h.", "data": [{"molecule": "SS1: humanized GHR antagonist antibody; VL SEQ ID NO: 7, VH SEQ ID NO: 8; hIgG2Δa heavy chain SEQ ID NO: 134, light chain SEQ ID NO: 135 (antibody, Humanized and/or affinity matured antibody sequence) heavy: EVQLVESGGGLVKPGGSLRLSCAASGFTFSDAWMDWVRQAPGKGLEWVAEIRSKANYHATYYAESVKGRFTISRDDSKNTLYLQMNSLKTEDTAVYYCTLIRDYWGQGTLVTVSSASTKGPSVFPLAPCSRSTSESTAALGCLVKDYFPEPVTVSWNSGALTSGVHTFPAVLQSSGLYSLSSVVTVPSSNFGTQTYTCNVDHKPSNTKVDKTVERKCCVECPPCPAPPVAGPSVFLFPPKPKDTLMISRTPEVTCVVVDVSHEDPEVQFNWYVDGVEVHNAKTKPREEQFNSTFRVVSVLTVVHQDWLNGKEYKCKVSNKGLPSSIEKTISKTKGQPREPQVYTLPPSREEMTKNQVSLTCLVKGFYPSDIAVEWESNGQPENNYKTTPPMLDSDGSFFLYSKLTVDKSRWQQGNVFSCSVMHEALHNHYTQKSLSLSPGK light: EIVLTQSPGTLSLSPGERATLSCTATSSVSSSYLNWYQQKPGQAPRLLIYSTSNLASGIPDRFSGSGSGTDFTLTISRLEPEDFAVYYCHQYHRSTPTFGGGTKVEIKRTVAAPSVFIFPPSDEQLKSGTASVVCLLNNFYPREAKVQWKVDNALQSGNSQESVTEQDSKDSTYSLSSTLTLSKADYEKHKVYACEVTHQGLSSPVTKSFNRGEC", "values": [{"measurement": "serum IGF-1 levels (% change from baseline)", "setting": "SS1 3 mg/kg IV single dose, 24 h post-injection", "value": "−43.6 +/− 0.5%"}, {"measurement": "serum IGF-1 levels (% change from baseline)", "setting": "SS1 3 mg/kg IV single dose, 48 h post-injection", "value": "−66.6 +/− 1.1%"}, {"measurement": "serum IGF-1 levels (% change from baseline)", "setting": "SS1 3 mg/kg IV single dose, 72 h post-injection", "value": "−67.1 +/− 1.6%"}, {"measurement": "serum IGF-1 levels (% change from baseline)", "setting": "SS1 3 mg/kg IV single dose, 120 h post-injection", "value": "−76.2 +/− 7.9%"}, {"measurement": "serum IGF-1 levels (% change from baseline)", "setting": "SS1 3 mg/kg IV single dose, 144 h post-injection", "value": "−68.4 +/− 1.1%"}, {"measurement": "serum IGF-1 levels (% change from baseline)", "setting": "SS1 3 mg/kg IV single dose, 192 h post-injection", "value": "−65.2 +/− 3.0%"}, {"measurement": "serum IGF-1 levels (% change from baseline)", "setting": "SS1 3 mg/kg IV single dose, 240 h post-injection", "value": "−34.5 +/− 17.8%"}, {"measurement": "serum IGF-1 levels (% change from baseline)", "setting": "SS1 3 mg/kg IV single dose, 336 h post-injection", "value": "64.2 +/− 0.6%"}, {"measurement": "serum IGF-1 levels (% change from baseline)", "setting": "SS1 3 mg/kg IV single dose, 528 h post-injection", "value": "85.1 +/− 46.0%"}, {"measurement": "serum IGF-1 levels (% change from baseline)", "setting": "SS1 3 mg/kg IV single dose, 696 h post-injection", "value": "49.2 +/− 11.3%"}, {"measurement": "serum IGF-1 levels (% change from baseline)", "setting": "SS1 10 mg/kg IV single dose, 24 h post-injection", "value": "−43.4 +/− 2.2%"}, {"measurement": "serum IGF-1 levels (% change from baseline)", "setting": "SS1 10 mg/kg IV single dose, 48 h post-injection", "value": "−62.6 +/− 5.5%"}, {"measurement": "serum IGF-1 levels (% change from baseline)", "setting": "SS1 10 mg/kg IV single dose, 72 h post-injection", "value": "−67.1 +/− 4.7%"}, {"measurement": "serum IGF-1 levels (% change from baseline)", "setting": "SS1 10 mg/kg IV single dose, 120 h post-injection", "value": "−73.5 +/− 2.1%"}, {"measurement": "serum IGF-1 levels (% change from baseline)", "setting": "SS1 10 mg/kg IV single dose, 144 h post-injection", "value": "−76.0 +/− 0.1%"}, {"measurement": "serum IGF-1 levels (% change from baseline)", "setting": "SS1 10 mg/kg IV single dose, 192 h post-injection", "value": "−74.0 +/− 0.2%"}, {"measurement": "serum IGF-1 levels (% change from baseline)", "setting": "SS1 10 mg/kg IV single dose, 240 h post-injection", "value": "−70.9 +/− 1.9%"}, {"measurement": "serum IGF-1 levels (% change from baseline)", "setting": "SS1 10 mg/kg IV single dose, 336 h post-injection", "value": "−61.4 +/− 0.6%"}, {"measurement": "serum IGF-1 levels (% change from baseline)", "setting": "SS1 10 mg/kg IV single dose, 528 h post-injection", "value": "25.7 +/− 11.8%"}, {"measurement": "serum IGF-1 levels (% change from baseline)", "setting": "SS1 10 mg/kg IV single dose, 696 h post-injection", "value": "31.7 +/− 15.2%"}, {"measurement": "serum IGF-1 levels (% change from baseline)", "setting": "SS1 30 mg/kg IV single dose, 24 h post-injection", "value": "−43.2 +/− 3.0%"}, {"measurement": "serum IGF-1 levels (% change from baseline)", "setting": "SS1 30 mg/kg IV single dose, 48 h post-injection", "value": "−63.2 +/− 5.0%"}, {"measurement": "serum IGF-1 levels (% change from baseline)", "setting": "SS1 30 mg/kg IV single dose, 72 h post-injection", "value": "−68.5 +/− 5.8%"}, {"measurement": "serum IGF-1 levels (% change from baseline)", "setting": "SS1 30 mg/kg IV single dose, 120 h post-injection", "value": "−75.2 +/− 5.2%"}, {"measurement": "serum IGF-1 levels (% change from baseline)", "setting": "SS1 30 mg/kg IV single dose, 144 h post-injection", "value": "−77.5 +/− 5.6%"}, {"measurement": "serum IGF-1 levels (% change from baseline)", "setting": "SS1 30 mg/kg IV single dose, 192 h post-injection", "value": "−77.2 +/− 3.3%"}, {"measurement": "serum IGF-1 levels (% change from baseline)", "setting": "SS1 30 mg/kg IV single dose, 240 h post-injection", "value": "−74.8 +/− 3.4%"}, {"measurement": "serum IGF-1 levels (% change from baseline)", "setting": "SS1 30 mg/kg IV single dose, 336 h post-injection", "value": "−73.3 +/− 0.7%"}, {"measurement": "serum IGF-1 levels (% change from baseline)", "setting": "SS1 30 mg/kg IV single dose, 528 h post-injection", "value": "−73.0 +/− 0.9%"}]}]}
